Consider one protein from paper PMC6030200 (Scientific Reports, 2018).

This data set concerns the molecule itself. The data set is described as follows: negative-stain electron microscopy.

B1: HAdV-5 penton base protein, recombinant, soluble (natural protein)
chain: MRRAAMYEEGPPPSYESVVSAAPVAAALGSPFDAPLDPPFVPPRYLRPTGGRNSIRYSELAPLFDTTRVYLVDNKSTDVASLNYQNDHSNFLTTVIQNNDYSPGEASTQTINLDDRSHWGGDLKTILHTNMPNVNEFMFTNKFKARVMVSRLPTKDNQVELKYEWVEFTLPEGNYSETMTIDLMNNAIVEHYLKVGRQNGVLESDIGVKFDTRNFRLGFDPVTGLVMPGVYTNEAFHPDIILLPGCGVDFTHSRLSNLLGIRKRQPFQEGFRITYDDLEGGNIPALLDVDAYQASLKDDTEQGGGGAGGSNSSGSGAEENSNAAAAAMQPVEDMNDHAIRGDTFATRAEEKRAEAEAAAEAAAPAAQPEVEKPQKKPVIKPLTEDSKKRSYNLISNDSTFTQYRSWYLAYNYGDPQTGIRSWTLLCTPDVTCGSEQVYWSLPDMMQDPVTFRSTRQISNFPVVGAELLPVHSKSFYNDQAVYSQLIRQFTSLTHVFNRFPENQILARPPAPTITTVSENVPALTDHGTLPLRNSIGGVQRVTITDARRRTCPYVYKALGIVSPRVLSSRTF
notes: also called 5PB; source: Sf9 (baculovirus, pFastBac HT A), purified (Ni-NTA agarose, HiTrap Q-sepharose)
The stoichiometry N is a count of units in the complex or per binding partner. B1: the “stoichiometry N” value is 5.
